Drawing on the supplement of paper PMC10598134, this text covers collision cross section for 55 sequences.

± gives the standard deviation.

The data set can be described thus: collision cross section of modified peptide (TIMS, N2, iRT-aligned); higher = larger / more extended gas-phase ion. Here is the method: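 1/K0 was aligned run-wise to spiked iRT peptides and converted to CCS in N2 (Mason-Schamp). Values are the mean of 1-3 technical replicates for the most abundant feature at each charge state.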
[1] abbreviates: charge state: 2, modification: Succinyl.
The mark [2] stands for this setting: charge state: 3, modification: Succinyl.
[3] abbreviates: charge state: 3, modification: Trimethyl (K).
The mark [4] stands for this setting: charge state: 2, modification: hydroxyisobutyryl.
[5] abbreviates: charge state: 3, modification: hydroxyisobutyryl.
Setting [6] is: charge state: 2, modification: Acetyl (K).
The mark [7] stands for this setting: charge state: 3, modification: Acetyl (K).
[8] abbreviates: charge state: 2, modification: Butyryl.
[9] abbreviates: charge state: 2, modification: Crotonyl.
Setting [10] is: charge state: 2, modification: Dimethyl (K).
The mark [11] stands for this setting: charge state: 3, modification: Dimethyl (K).
Setting [12] is: charge state: 2, modification: Formyl.
The mark [13] stands for this setting: charge state: 2, modification: Glutarylation.
Where [14] appears, read: charge state: 3, modification: Glutarylation.
Setting [15] is: charge state: 2, modification: GlyGly (K).
Where [16] appears, read: charge state: 3, modification: GlyGly (K).
The mark [17] stands for this setting: charge state: 2, modification: Malonyl.
[18] abbreviates: charge state: 2, modification: Methyl (K).
Setting [19] is: charge state: 3, modification: Methyl (K).
[20] abbreviates: charge state: 2, modification: Propionyl.
Setting [21] is: charge state: 2, modification: Trimethyl (K).
[22] abbreviates: charge state: 2, modification: Biotin.
[23] abbreviates: charge state: 3, modification: Biotin.
The mark [24] stands for this setting: charge state: 3, modification: Butyryl.
Setting [25] is: charge state: 3, modification: Crotonyl.
[26] abbreviates: charge state: 2, modification: Nitro (Y).
Where [27] appears, read: charge state: 2, modification: Phospho (Y).
Setting [28] is: charge state: 2, modification: Hydroxyproline.
[29] abbreviates: charge state: 3, modification: Hydroxyproline.

Regarding “DSSPTTNSKLSALQR [_DSSPTTNSK(Succinyl)LSALQR_]”, the collision cross section reads like this: under setting [1], 428.81 ± 1.1 Å²; under setting [2], 496.14 ± 4.3 Å².

For “DSSPTTNSKLSALQR [_DSSPTTNSK(Trimethyl (K))LSALQR_]”, the collision cross section under setting [3] was determined as 473.36 ± 2.4 Å².

On to “DSSPTTNSKLSALQR [_DSSPTTNSK(hydroxyisobutyryl)LSALQR_]”, for which the collision cross section by setting is: under setting [4], 437.4 ± 0.29 Å²; under setting [5], 502.1 ± 2.1 Å².

Regarding “DTGEKLTVAENEAETK [_DTGEK(Acetyl (K))LTVAENEAETK_]”, the collision cross section runs as follows: under setting [6], 441.95 ± 2.1 Å²; under setting [7], 512.62 Å².

Consider “DTGEKLTVAENEAETK [_DTGEK(Butyryl)LTVAENEAETK_]”, for which the collision cross section under setting [8] is on record as 448.65 ± 0.25 Å².

Consider “DTGEKLTVAENEAETK [_DTGEK(Crotonyl)LTVAENEAETK_]”, for which the collision cross section under setting [9] is reported as 449.13 ± 0.83 Å².

Regarding “DTGEKLTVAENEAETK [_DTGEK(Dimethyl (K))LTVAENEAETK_]”, the collision cross section runs as follows: under setting [10], 442.93 ± 0.72 Å²; under setting [11], 481.58 ± 2.1 Å².

“DTGEKLTVAENEAETK [_DTGEK(Formyl)LTVAENEAETK_]” returned a collision cross section under setting [12] of 439.79 ± 0.78 Å².

Turning to “DTGEKLTVAENEAETK [_DTGEK(Gluratylation)LTVAENEAETK_]”, the collision cross section by setting is: under setting [13], 451.19 ± 1.1 Å²; under setting [14], 527.35 Å².

Regarding “DTGEKLTVAENEAETK [_DTGEK(GlyGly (K))LTVAENEAETK_]”, the collision cross section reads like this: under setting [15], 443.91 ± 1.6 Å²; under setting [16], 490.28 ± 1.9 Å².

For “DTGEKLTVAENEAETK [_DTGEK(Malonyl)LTVAENEAETK_]”, the collision cross section under setting [17] is recorded as 444.04 ± 1.8 Å².

As to “DTGEKLTVAENEAETK [_DTGEK(Methyl (K))LTVAENEAETK_]”, the collision cross section was found to be 429.8 ± 2.5 Å² under setting [18] and 482 ± 3.4 Å² under setting [19].

As for “DTGEKLTVAENEAETK [_DTGEK(Propionyl)LTVAENEAETK_]”, the collision cross section under setting [20] was 443.51 Å².

On to “DTGEKLTVAENEAETK [_DTGEK(Succinyl)LTVAENEAETK_]”, for which the collision cross section by setting is: under setting [1], 445.72 ± 1.1 Å²; under setting [2], 515.74 ± 2.2 Å².

“DTGEKLTVAENEAETK [_DTGEK(Trimethyl (K))LTVAENEAETK_]”: the collision cross section under setting [21] is reported as 443.08 Å² and the collision cross section under setting [3] was 490.09 ± 1.8 Å².

“DTGEKLTVAENEAETK [_DTGEK(hydroxyisobutyryl)LTVAENEAETK_]”: the collision cross section reads like this: under setting [4], 449.65 ± 0.82 Å²; under setting [5], 520.27 ± 2.8 Å².

For the sequence “DTPTSAGPNSFNKGK [_DTPTSAGPNSFNK(Acetyl (K))GK_]”, under setting [6], the collision cross section came out at 406.79 ± 1.5 Å².

Consider “DTPTSAGPNSFNKGK [_DTPTSAGPNSFNK(Biotin)GK_]”, for which the collision cross section runs as follows: under setting [22], 428.73 ± 1.1 Å²; under setting [23], 478.46 Å².

In the case of “DTPTSAGPNSFNKGK [_DTPTSAGPNSFNK(Butyryl)GK_]”, the collision cross section was found to be 412.93 ± 0.78 Å² under setting [8] and 464.51 ± 3.2 Å² under setting [24].

Take “DTPTSAGPNSFNKGK [_DTPTSAGPNSFNK(Crotonyl)GK_]”: the collision cross section by setting is: under setting [9], 412.68 ± 0.55 Å²; under setting [25], 462.19 Å².

With “DTPTSAGPNSFNKGK [_DTPTSAGPNSFNK(Dimethyl (K))GK_]”, the collision cross section stood at 406.79 ± 1.1 Å² under setting [10] and 455.12 ± 1.6 Å² under setting [11].

Consider “DTPTSAGPNSFNKGK [_DTPTSAGPNSFNK(Formyl)GK_]”, for which the collision cross section under setting [12] is 404 ± 0.2 Å².

“DTPTSAGPNSFNKGK [_DTPTSAGPNSFNK(Gluratylation)GK_]”: the collision cross section is, setting by setting: under setting [13], 415.83 ± 1.8 Å²; under setting [14], 444.87 ± 1.9 Å².

As to “DTPTSAGPNSFNKGK [_DTPTSAGPNSFNK(GlyGly (K))GK_]”, the collision cross section was 413.5 ± 3.1 Å² under setting [15] and 464.37 ± 0.33 Å² under setting [16].

Turning to “DTPTSAGPNSFNKGK [_DTPTSAGPNSFNK(Malonyl)GK_]”, under setting [17], the collision cross section came to 408.63 ± 0.58 Å².

In the case of “DTPTSAGPNSFNKGK [_DTPTSAGPNSFNK(Methyl (K))GK_]”, the collision cross section is, setting by setting: under setting [18], 405.71 ± 2.7 Å²; under setting [19], 460.78 ± 4.6 Å².

On to “DTPTSAGPNSFNKGK [_DTPTSAGPNSFNK(Propionyl)GK_]”, for which the collision cross section under setting [20] worked out at 410.13 ± 0.64 Å².

The sequence “DTPTSAGPNSFNKGK [_DTPTSAGPNSFNK(Succinyl)GK_]” came in with a collision cross section under setting [1] of 411.39 ± 1.1 Å².

For “DTPTSAGPNSFNKGK [_DTPTSAGPNSFNK(Trimethyl (K))GK_]”, the collision cross section runs as follows: under setting [21], 411.65 ± 1.2 Å²; under setting [3], 457.6 ± 1.8 Å².

In the case of “DTPTSAGPNSFNKGK [_DTPTSAGPNSFNK(hydroxyisobutyryl)GK_]”, the collision cross section turned out to be 416.06 ± 1.1 Å² under setting [4] and 443.44 ± 3 Å² under setting [5].

DVFISAAER [_DVFIS(HexNAc (ST))AAER_]: the collision cross section (charge state: 2, modification: HexNAc (ST)) was determined as 363.87 Å².

On to “DVNAAIAAIKTK [_DVNAAIAAIK(Acetyl (K))TK_]”, for which the collision cross section by setting is: under setting [6], 390.07 ± 14 Å²; under setting [7], 457.21 Å².

DVNAAIAAIKTK [_DVNAAIAAIK(Biotin)TK_] had a collision cross section under setting [22] of 423.85 Å².

For the sequence DVNAAIAAIKTK [_DVNAAIAAIK(Butyryl)TK_], the collision cross section reads like this: under setting [8], 406.92 ± 0.23 Å²; under setting [24], 469.41 Å².

For DVNAAIAAIKTK [_DVNAAIAAIK(Crotonyl)TK_], the collision cross section reads like this: under setting [9], 406.32 ± 0.28 Å²; under setting [25], 463.44 ± 4.2 Å².

Take “DVNAAIAAIKTK [_DVNAAIAAIK(Dimethyl (K))TK_]”: the collision cross section under setting [10] is recorded as 394.29 ± 0.87 Å² and the collision cross section under setting [11] is 456.19 ± 1.7 Å².

With DVNAAIAAIKTK [_DVNAAIAAIK(Formyl)TK_], the collision cross section under setting [12] stood at 377.34 ± 15 Å².

For “DVNAAIAAIKTK [_DVNAAIAAIK(Gluratylation)TK_]”, the collision cross section stood at 410.15 ± 0.99 Å² under setting [13] and 471.67 ± 2.5 Å² under setting [14].

As to “DVNAAIAAIKTK [_DVNAAIAAIK(GlyGly (K))TK_]”, the collision cross section is, setting by setting: under setting [15], 401.67 ± 0.99 Å²; under setting [16], 465.81 ± 1.1 Å².

Take DVNAAIAAIKTK [_DVNAAIAAIK(Malonyl)TK_]: the collision cross section under setting [17] amounted to 406.2 ± 0.59 Å².

Regarding “DVNAAIAAIKTK [_DVNAAIAAIK(Methyl (K))TK_]”, the collision cross section reads like this: under setting [18], 392.53 ± 0.95 Å²; under setting [19], 462.62 ± 2.7 Å².

On to DVNAAIAAIKTK [_DVNAAIAAIK(Succinyl)TK_], for which the collision cross section runs as follows: under setting [1], 407.52 ± 0.54 Å²; under setting [2], 461.32 Å².

In the case of “DVNAAIAAIKTK [_DVNAAIAAIK(Trimethyl (K))TK_]”, the collision cross section reads like this: under setting [21], 402.42 ± 1.1 Å²; under setting [3], 465.71 ± 2.2 Å².

As to “DVNAAIAAIKTK [_DVNAAIAAIK(hydroxyisobutyryl)TK_]”, the collision cross section is listed as 392.68 ± 15 Å² under setting [4] and 466.43 ± 5.5 Å² under setting [5].

For the sequence DYGNSPLHR [_DY(Nitro (Y))GNSPLHR_], the collision cross section by setting is: under setting [26], 341.59 ± 0.55 Å²; (charge state: 3, modification: Nitro (Y)) 437.8 ± 1.2 Å².

With DYGNSPLHR [_DY(Phospho (Y))GNSPLHR_], the collision cross section is, setting by setting: under setting [27], 345.01 ± 0.066 Å²; (charge state: 3, modification: Phospho (Y)) 444.49 Å².

As for DYILEGEPGK [_DY(Nitro (Y))ILEGEPGK_], the collision cross section under setting [26] is 355.27 ± 0.17 Å².

Under setting [27], DYILEGEPGK [_DY(Phospho (Y))ILEGEPGK_] yielded a collision cross section of 357.17 ± 0.065 Å².

Take DYNVTANSK [_DY(Nitro (Y))NVTANSK_]: under setting [26], the collision cross section amounted to 334.81 ± 0.16 Å².

With DYNVTANSK [_DY(Phospho (Y))NVTANSK_], the collision cross section under setting [27] amounted to 337.74 ± 0.067 Å².

With “DYQPGITFIVVQK [_DYQP(Hydroxyproline)GITFIVVQK_]”, the collision cross section by setting is: under setting [28], 402.94 ± 0.79 Å²; under setting [29], 487.91 Å².

Consider “DYQPGITFIVVQKR [_DYQP(Hydroxyproline)GITFIVVQKR_]”, for which the collision cross section is, setting by setting: under setting [28], 449.25 ± 1.9 Å²; under setting [29], 517.44 ± 1.2 Å².

Take “DYSAPVNFISAGLKK [_DYSAPVNFISAGLK(Acetyl (K))K_]”: the collision cross section under setting [6] amounted to 433.43 ± 2.4 Å² and the collision cross section under setting [7] is given as 518.95 ± 1.1 Å².

For the sequence “DYSAPVNFISAGLKK [_DYSAPVNFISAGLK(Biotin)K_]”, the collision cross section is, setting by setting: under setting [22], 458.59 ± 0.47 Å²; under setting [23], 548.62 Å².

As for “DYSAPVNFISAGLKK [_DYSAPVNFISAGLK(Butyryl)K_]”, the collision cross section is reported as 437.47 ± 5.8 Å² under setting [8] and 532.64 Å² under setting [24].
